# Target: full-length SARS-CoV-2 spike protein, wildtype, surface expressed (SARS-CoV-2, UniProt P0DTC2)
# Assay: flow cytometry on cells
binder,measurement,value
"human monoclonal antibody 47D11 (antibody, V domains shown) VH: QVQLQESGPGLVKPSETLSLTCSVSGGSISSHYWSWIRQPPGKGLEWIGYIYYSGSTNHNPSLKSRVTISVDTSKNQFSLKLSSVTAADTAVYYCARGVLLWFGEPIFEIWGQGTMVTVSS VL: EIVMTQSPATLSVSPGERATLSCRASQSVSSSLAWYQQKPGQAPRLLIYGASTRAPGIPARFSGSGSGTEFTLTISSLQSEDFAVYYCQQYNNWPLTFGGGTKVEI",binding result,binds
